The results in this text go back to patent US20050221400A1.

A word on the Kd: it is the equilibrium constant for the complex coming apart. A higher Kd goes with weaker binding.

In the test the target is PSCA (prostate stem cell antigen), human, PSCA v.1 (human) (UniProt O43653). Briefly: FACS titration on SW780 cells, anti-hIgG-PE, Graphpad Prism sigmoidal dose-response fit.

B1: Ha1-4.37 (antibody, V domains shown)
VH: PGALQESGPGLVRPSQTLSLTCTVSGGSISSGGTYYWIWIRQHPGKGLEWIGYIYYSGSTYYNPSLKSRVTISVDTSKNQFSLKLSSVTAADTAVYYCARDGITMVRGISGGMDVWGQGTTVTVSS
VL: ASVGDRVTITCRASQSISSHLNWYQQKPGKAPKLLIYAASSLQSGVPSRFSGSGSGTDFTLSISSLQPEDFATYFCQQSYSIPRTFGQGTKVEITR
In turn, B1 had a Kd of 230 pM.

B2: Ha1-5.99 (antibody, IgG2, V domains shown)
VH: QVHLQQWGAGLLKPSETLSLTCAVYGGSFSGYYWSWIRQPPGKGLEWIGEINHSGSTSYKPSLKSRVTVSVDTSKNQFSLKLSYVTAADTAVYYCARDRGDYGDFLFDYWGQGTLVTVSS
VL: SPGERATLSCRASQSIGSTYLAWYQQKPGQAPRLLIYGASSRATGIPERFSGSGSGTDFTLTISGLEPEDFAVFYCQQCGSSPPTFGQGTKVEIKR
B2: the Kd was 280 pM.
